Measurements published in patent US20080233097A1, “Phosphorylation Site Of Mitogen-Activated Protein Kinases, Modified Proteins And Applications” (UNIVERSIDAD AUTONOMA DE MADRID, priority 2005, published 2008).
Values joined by “and” are separate entries in the source; they are usually repeats but may differ in a detail not shown here. Identical values can stand only once.

Tests used:
GRK2 = molecular target: T1, GRK2 (Bos taurus, UniProt P21146); experiment: GRK2 kinase activity in vitro (casein substrate); type: biochemical; settings: 0.5 μM
T1 construct: made in house; host or cells: Sf9 cells (baculovirus)
T1 sequence (P21146 1-689): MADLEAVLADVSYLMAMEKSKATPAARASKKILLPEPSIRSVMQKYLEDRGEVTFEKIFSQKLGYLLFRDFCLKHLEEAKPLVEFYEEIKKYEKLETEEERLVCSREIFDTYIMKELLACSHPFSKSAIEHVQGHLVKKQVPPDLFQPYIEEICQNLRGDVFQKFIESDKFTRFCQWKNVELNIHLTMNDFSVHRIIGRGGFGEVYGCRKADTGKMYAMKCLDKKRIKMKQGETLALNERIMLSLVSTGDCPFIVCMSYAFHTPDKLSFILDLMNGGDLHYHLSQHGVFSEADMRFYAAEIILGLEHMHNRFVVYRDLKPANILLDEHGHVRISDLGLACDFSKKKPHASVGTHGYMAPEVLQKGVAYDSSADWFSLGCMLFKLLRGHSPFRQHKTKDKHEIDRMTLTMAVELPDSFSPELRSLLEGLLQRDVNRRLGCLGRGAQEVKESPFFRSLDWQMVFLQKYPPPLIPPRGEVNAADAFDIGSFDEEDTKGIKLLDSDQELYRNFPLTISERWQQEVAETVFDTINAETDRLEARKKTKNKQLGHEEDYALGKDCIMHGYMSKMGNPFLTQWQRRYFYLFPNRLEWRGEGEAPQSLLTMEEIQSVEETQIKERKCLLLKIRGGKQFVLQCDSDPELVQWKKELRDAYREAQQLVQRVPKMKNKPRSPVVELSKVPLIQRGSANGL

3T3-L1 cells [1] = experiment: adipocyte differentiation of 3T3-L1 (Oil Red staining, adipocyte count); type: cell-based
Source text: 3T3L1 lines stably transfected with pCDNA3-GRK2 and pCDNA3-GRK2K220R were made. GRK2 (anti-GRK2) expression controls obtained in cell lines, compared to 3T3L1 levels, are included. The cells were subjected to a standard differentiation treatment and on day 15 of the latter, the cells were fixed with formalin and stained with Oil Red, a lipophilic coloring which binds to the fats accumulated by the adipocytes. The cells with adipocytic phenotype (in red) were counted under microscope in a total of 25 fields. Representative photographs of two independent experiments are shown in duplicate. A photo of the 3T3L1 cells, free of stimulation with insulin during the differentiation process (control), is also included. The graph reflects the adipocyte count (±SEM) in these experiments.
The cell culture was carried out with 10% DMEM medium of NCS serum. However, the entire differentiation process which is described below must be performed in depleted AXC serum (ion exchange resin) by means of successive adsorptions of fetal calf serum on an anion exchange resin and on active carbon. AXC serum was provided by the kitchen service of the Instituto of Investigaciones Biomédicas (Biomedical Research Institute). The cells are grown until their confluence and are plated (5×10^5 in P-100) in DMEM-10% AXC medium, supplemented with 4 μM of biotin (Sigma). The following day, the medium is replaced with fresh medium. The cells are grown another three days, until confluence is reached again, that day is called day “0”. On day 0 of differentiation, the cells are cultured in a medium containing: 0.5 μM dexamethasone (Sigma), 0.5 mM 3-isobutyl-1-methylxanthine (IMBX, of Sigma) and 1 μM insulin (Sigma) and in which they will remain for another three days. […] From day 6 to day 15, the adipogenesis was analyzed by staining with Oil Red, a red coloring of lipophilic constitution which binds to the drops of fat accumulated by the adipocytes in their cytoplasm. […] The cells are counted in a total of 25 fields per each experimental plate.

3T3-L1 cells [2] = settings: prior demonstration of p38 involvement; cited from earlier work
p38 (GST-p38) = molecular target: T2, p38 (GST-p38) (Mus musculus, UniProt P47811); experiment: p38 phosphorylation by GRK2 in vitro (kinetic characterization); type: biochemical
T2 construct: with whole p38α in the same conditions as described in section A; made in house; host or cells: E. coli (GST-p38); Sf9 cells with baculovirus (GRK2)
T2 sequence (P47811 whole entry): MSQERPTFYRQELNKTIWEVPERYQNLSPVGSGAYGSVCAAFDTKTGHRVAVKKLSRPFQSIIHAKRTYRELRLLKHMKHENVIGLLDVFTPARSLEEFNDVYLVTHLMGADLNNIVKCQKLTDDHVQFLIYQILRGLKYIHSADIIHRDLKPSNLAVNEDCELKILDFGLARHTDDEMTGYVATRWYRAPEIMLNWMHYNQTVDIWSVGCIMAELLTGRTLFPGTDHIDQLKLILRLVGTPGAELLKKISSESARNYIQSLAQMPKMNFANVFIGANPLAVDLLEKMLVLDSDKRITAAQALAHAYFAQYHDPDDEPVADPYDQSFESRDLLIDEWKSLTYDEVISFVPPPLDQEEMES
Protocol: Normally, the phosphorylation reactions are left to take place for 30 minutes at 30° C. In the case of two-dimensional electrophoresis or of the samples intended for proteomic sequencing, the reaction extends to 1 or 2 hours.
The Michaelis-Menten behaviour of the kinases was assumed for calculating the kinetic constants of the enzymatic reactions. The graphs were made with the “Kaleidagraph” program, provided with an algorithm capable of deducing the kinetic parameters: Michaelis-Menten constant (Km) and maximum speed (Smax=So (nmol of PO4^3-incorporated. mg of enzyme^−1minute^−1)

Flag-p38α = molecular target: T3, Flag-p38α (Mus musculus, UniProt P47811); experiment: […] peptide phosphorylation by immunoprecipitated Flag-p38; type: biochemical; settings: HEK 293 cells transfected with Flag-p38α, MKK6CAM and 1 or 2 μg pCDNA3-GRK2
T3 construct: expressed in transfected cells; host or cells: HEK 293 cells, co-transfected with pCDNA3-MKK6CAM and with or without pCDNA3-GRK2
T3 sequence (P47811 whole entry): as above
Protocol: FIG. 4A: HEK 293 cells, seeded in p60, were transiently transfected with 0.5 μg of pCDNA3-Flag-p38α, 0.5 μg of pCDNA3-MKK6CAM(or 0.5 μg of empty pCDNA3 in the control, CTRL), and with 1 or 2 μg of the pCDNA3-GRK2 (+) vector, carrying out each point in duplicate. The controls were carried out in a parallel way, substituting the pCDNA3-GRK2 μg with pCEFL-EGFP (−). The total DNA amount was completed with empty pCDNA3. After 48 hours, the cells were lysed, lysate aliquots were taken and Flag-p38 was immunoprecipitated from them. […] FIG. 4B: The immunoprecipitates were washed three times with 15 ml of M2 buffer and two times with 15 ml of phosphorylation buffer without ATP (15 mM NaF, 25 mM Hepes pH 7.5 and 10 mM magnesium acetate). In the last washing step, the agarose-immune complexes were resuspended in 1 ml of buffer and 10% of each point was separated to control the immunoprecipitation of Flag-p38 (panel inserted in the graph of section B). Kinase-assays were carried out with immunoprecipitated Flag-p38, using [sequence] peptide (initially provided by CalbioChem and subsequently synthesized by the Servicio de Química de Proteínas (Protein Chemistry Service) of the CBMSO) as a substrate. […] ATP and 2 mM of the peptide substrate. […] They were left to dry, were abundantly washed with 75 mM phosphoric acid and the radioactivity incorporated by the adsorbed peptide was quantified by Cerenkov. […]

Flag-p38 = experiment: GRK2 overexpression: p38 activation by MKK6CAM in HEK 293 cells; type: cell-based, human; settings: increasing doses of pCDNA3-GRK2 (0 to 1 μg)
Protocol: FIG. 3A: HEK 293 cells, normally seeded in multiwell plates with 6 or 12 wells (M6 or M12), were transiently transfected with pCDNA3-Flag-p38α, pCDNA3-MKK6CAM, and with increasing amounts of the pCDNA3-GRK2 vector. In this experiment, M6 plates were used and the DNA amounts introduced were: 100 ng of Flag-p38, 100 ng of MKK6CAM, and 0 to 1 μg of GRK2. In all points, the total amount of DNA was completed with pCEFL-EGFP and with empty pCDNA3 instead of pCDNA3-MKK6CAM, in the case of the control (CTRL). After 48 hours, the cells were harvested by lysing them in M2 buffer. […] The p38 activation state was evaluated with anti-phospho-p38, of Cell Signaling, and after giving off the antibodies of the first immunodetection, it was detected with total anti-p38, of the same company. […] The Flag-p38 activation state was determined in the same way as in A. Furthermore, the correct MKK6CAM expression was assured with the anti-MKK6/SKK3 antibody of Upstate Biotechnology. […]
The HE 293 cells, generally subjected to starvation (medium without serum) of a variable duration: 2 hours in the case of p38 and all night in the case of ERK, were stimulated and, after processing the lysate cells, the immunodetection of the phosphoproteins was carried out with the phospho-specific antibodies of the activation segments of both proteins. […] The quantification of the bands was carried out in a laser densitometer. […]

sinucleins = settings: depending on the subtypes; cited from earlier work
β-tubulins = settings: depending on the subtypes; cited from earlier work
[3] = tested on: phosducin and the protein similar to phosducin (PhD and PhLP); settings: cited from earlier work

Compound | effect on kinase activity of GRK2 (GRK2) | effect on adipogenesis (3T3-L1 cells [1]; 10 μM, insulin-induced differentiation) | effect on differentiation into adipocytes (3T3-L1 cells [2]) | maximum speed (Smax) (p38 (GST-p38); GRK2 25 nM, p38 12.5 to 400 nM, 15 minutes) | Km (p38 (GST-p38); GRK2 25 nM, p38 12.5 to 400 nM, 15 minutes, 30° C., read-out: Michaelis-Menten constant (Km)) | stoichiometry of phosphorylation (p38 (GST-p38); at least three quantifications by Cerenkov) | average time for reaching 50% of the maximum phosphorylation (p38 (GST-p38); time course 0 to 90 minutes) [min] | catalytic activity of immunoprecipitated p38 on APR peptide (Flag-p38α) | acquisition of the adipocytic morphology mediated by insulin (3T3-L1 cells [1]; 3T3L1 lines stably transfected, day 15) | p38 activation dependent on MKK6CAM (Flag-p38) | Km (sinucleins) [µM] | Km (β-tubulins) [µM] | Km [3] [µM]
C[S+]([O-])c1ccc(-c2nc(-c3ccncc3)c(-c3ccc(F)cc3)[nH]2)cc1 (stereo not shown) [SB203580] | does not affect the kinase activity of GRK2 | reverses the entire adipogenesis | blocked | – | – | – | – | – | – | – | – | – | –
GRK2: G protein-coupled receptor kinase 2; recombinant, purified by the Baculovirus system; phosphorylates Thr123 of p38 | – | – | – | 0.9 nmol of PO4^3-incorporated per mg GRK2^−1 minute^−1 | 0.0796 µM and 0.08 µM | 0.4-0.8 mol Pi/mol p38 | 15 | dimmed | inhibits the acquisition of the adipocytic morphology mediated by insulin | decreased more as more amounts of GRK2 were expressed | 1 to 2 | 1 to 2 | 0.04 to 0.1
